Drawing on patent publication US20060105951A1, this text covers IC50, EC50, cAMP production, CHOK1 Clone 1 (high MC4R expression) and EC50, cAMP production, CHOK1 Clone 2 (low MC4R expression) for one substance.

Experiment [1] concerns the target melanocortin 4 receptor (MC4R) (Homo sapiens) (UniProt P32245). Put plainly: competitive binding assay (range of obtained IC50 values); competitor [125I]-NDP-alpha-MSH.
The target is the same in experiment [2]. Nature of the experiment: cell-based or functional assay.

Sequence of UniProt P32245 (P32245 whole entry V103I): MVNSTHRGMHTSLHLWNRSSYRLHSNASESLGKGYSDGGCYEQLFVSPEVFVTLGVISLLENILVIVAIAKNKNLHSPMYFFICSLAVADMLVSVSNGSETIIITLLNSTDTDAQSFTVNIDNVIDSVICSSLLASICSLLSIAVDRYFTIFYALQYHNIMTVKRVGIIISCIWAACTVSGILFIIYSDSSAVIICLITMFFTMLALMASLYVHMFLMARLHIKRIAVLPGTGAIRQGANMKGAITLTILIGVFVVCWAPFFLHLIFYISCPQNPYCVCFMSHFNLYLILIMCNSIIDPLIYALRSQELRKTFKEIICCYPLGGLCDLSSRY

For melanotan II (MTII) (peptide), the IC50 (commonly the midpoint of a concentration-inhibition curve) in experiment [1] lay within 5 to 30 nM. Further, in experiment [2], the EC50, cAMP production, CHOK1 Clone 1 (high MC4R expression) worked out at 0.52 nM and the EC50, cAMP production, CHOK1 Clone 2 (low MC4R expression) is 0.52 nM.
